Targets include CCR6 (human) (UniProt P51684); hCCR10 (human) (UniProt P46092); hCCR9 (human) (UniProt P51686); hCCR2b (human) (UniProt P41597); hCXCR4 (human) (UniProt P61073); CCR4 (human) (UniProt P51679); hCXCR3 (human) (UniProt P49682).
What all share (experiment): cell-based or functional assay
Test [1] deals with chemokine receptor CCR7 (human) (UniProt P32248).
Chain of chemokine receptor CCR7 (human) (P32248 25-378): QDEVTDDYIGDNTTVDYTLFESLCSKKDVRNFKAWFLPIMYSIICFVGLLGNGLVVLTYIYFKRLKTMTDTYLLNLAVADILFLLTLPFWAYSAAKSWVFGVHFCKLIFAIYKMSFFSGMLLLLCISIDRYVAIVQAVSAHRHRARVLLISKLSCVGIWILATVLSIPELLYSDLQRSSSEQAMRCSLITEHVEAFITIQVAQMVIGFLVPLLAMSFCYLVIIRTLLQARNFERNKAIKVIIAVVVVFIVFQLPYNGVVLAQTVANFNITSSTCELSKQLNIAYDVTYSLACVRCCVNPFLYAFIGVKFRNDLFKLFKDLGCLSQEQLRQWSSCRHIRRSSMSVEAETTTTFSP

Chain of CCR4 (human) (P51679 whole entry): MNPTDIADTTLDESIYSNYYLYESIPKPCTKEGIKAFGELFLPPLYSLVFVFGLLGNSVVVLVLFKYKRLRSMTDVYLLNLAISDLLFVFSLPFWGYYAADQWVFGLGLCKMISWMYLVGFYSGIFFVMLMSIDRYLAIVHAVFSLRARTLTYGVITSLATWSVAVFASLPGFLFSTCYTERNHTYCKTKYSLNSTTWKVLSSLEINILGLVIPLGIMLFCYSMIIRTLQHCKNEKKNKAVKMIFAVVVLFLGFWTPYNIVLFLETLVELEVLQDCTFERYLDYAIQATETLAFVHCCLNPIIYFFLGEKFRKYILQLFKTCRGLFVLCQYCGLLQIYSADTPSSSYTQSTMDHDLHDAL
Chain of hCCR9 (human) (P51686 whole entry): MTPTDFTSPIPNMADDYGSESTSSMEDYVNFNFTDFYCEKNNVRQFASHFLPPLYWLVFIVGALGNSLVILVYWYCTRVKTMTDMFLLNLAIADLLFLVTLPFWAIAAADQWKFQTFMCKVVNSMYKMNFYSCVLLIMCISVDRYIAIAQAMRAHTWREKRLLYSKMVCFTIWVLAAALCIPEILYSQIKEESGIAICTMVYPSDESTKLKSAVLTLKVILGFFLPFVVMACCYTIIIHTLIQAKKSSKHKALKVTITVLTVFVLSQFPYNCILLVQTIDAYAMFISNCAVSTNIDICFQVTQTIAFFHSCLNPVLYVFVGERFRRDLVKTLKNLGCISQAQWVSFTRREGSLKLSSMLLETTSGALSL
Chain of hCXCR3 (human) (P49682 whole entry): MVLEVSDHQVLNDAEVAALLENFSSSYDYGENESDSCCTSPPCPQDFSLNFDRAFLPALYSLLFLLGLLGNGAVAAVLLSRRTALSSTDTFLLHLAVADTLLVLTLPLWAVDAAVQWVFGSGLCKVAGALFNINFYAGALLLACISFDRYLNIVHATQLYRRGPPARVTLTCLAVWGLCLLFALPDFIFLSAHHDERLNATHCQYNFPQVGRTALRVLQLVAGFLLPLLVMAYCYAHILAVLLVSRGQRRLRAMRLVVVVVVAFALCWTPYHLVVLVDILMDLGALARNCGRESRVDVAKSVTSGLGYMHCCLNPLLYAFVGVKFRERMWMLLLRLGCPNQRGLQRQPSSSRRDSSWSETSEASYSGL
Chain of CCR6 (human) (P51684 whole entry): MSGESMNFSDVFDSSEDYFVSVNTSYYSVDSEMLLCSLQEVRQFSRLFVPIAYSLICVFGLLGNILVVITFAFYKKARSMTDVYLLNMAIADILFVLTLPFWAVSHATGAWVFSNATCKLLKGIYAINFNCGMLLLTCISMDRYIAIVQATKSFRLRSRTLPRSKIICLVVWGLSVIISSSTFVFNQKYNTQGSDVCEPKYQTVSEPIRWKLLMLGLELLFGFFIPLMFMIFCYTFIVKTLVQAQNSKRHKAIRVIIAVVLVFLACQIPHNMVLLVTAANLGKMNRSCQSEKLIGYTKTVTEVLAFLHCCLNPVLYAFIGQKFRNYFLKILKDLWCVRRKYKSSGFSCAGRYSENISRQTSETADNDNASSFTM
Chain of hCCR2b (human) (P41597 other isoform, or with tags, fused parts or gaps limits assumed): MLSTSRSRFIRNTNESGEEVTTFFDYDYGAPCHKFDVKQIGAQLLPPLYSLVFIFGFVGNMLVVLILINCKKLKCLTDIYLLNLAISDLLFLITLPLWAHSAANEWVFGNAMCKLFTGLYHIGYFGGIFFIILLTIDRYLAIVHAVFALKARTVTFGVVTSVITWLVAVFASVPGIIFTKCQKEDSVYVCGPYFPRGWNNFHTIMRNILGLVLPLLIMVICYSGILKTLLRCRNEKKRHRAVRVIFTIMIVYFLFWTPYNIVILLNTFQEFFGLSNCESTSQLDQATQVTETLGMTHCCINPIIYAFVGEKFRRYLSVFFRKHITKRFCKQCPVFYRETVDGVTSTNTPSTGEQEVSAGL
Chain of hCXCR4 (human) (P61073 whole entry): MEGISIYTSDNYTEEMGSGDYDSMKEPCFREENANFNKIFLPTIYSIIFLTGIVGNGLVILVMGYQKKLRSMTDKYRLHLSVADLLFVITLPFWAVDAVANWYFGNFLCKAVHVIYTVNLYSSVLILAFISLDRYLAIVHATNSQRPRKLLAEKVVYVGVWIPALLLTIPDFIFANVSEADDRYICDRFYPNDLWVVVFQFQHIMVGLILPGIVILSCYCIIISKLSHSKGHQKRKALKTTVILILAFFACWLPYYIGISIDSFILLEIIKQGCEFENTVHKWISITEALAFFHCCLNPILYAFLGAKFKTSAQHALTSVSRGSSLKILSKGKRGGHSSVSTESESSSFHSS
Chain of hCCR10 (human) (P46092 whole entry): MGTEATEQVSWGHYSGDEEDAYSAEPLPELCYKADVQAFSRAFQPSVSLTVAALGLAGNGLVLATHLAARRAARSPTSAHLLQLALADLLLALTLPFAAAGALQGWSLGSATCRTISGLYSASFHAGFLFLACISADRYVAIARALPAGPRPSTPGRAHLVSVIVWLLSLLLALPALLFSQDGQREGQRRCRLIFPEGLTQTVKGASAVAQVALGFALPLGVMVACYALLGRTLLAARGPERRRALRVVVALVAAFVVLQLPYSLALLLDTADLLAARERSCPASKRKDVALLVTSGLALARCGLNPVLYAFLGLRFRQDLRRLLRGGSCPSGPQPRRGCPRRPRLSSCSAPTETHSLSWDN

With “biotinylated MIP-3alpha (from UniProt P78556 27-96) (ligand)”, the reduction of CCR6-expressing cells by the column (flow cytometry before and after passage) in the test with CCR6 (human) is under 15%.
As for “recombinant native CTAC (from UniProt Q9Y4X3 25-112) (ligand)”, the EC50, agonist activity, Aequorin assay with hCCR10 (human) amounted to 33.5 nM.
For the substance “recombinant native TECK (from UniProt O15444 24-150) (ligand)”, the EC50, agonist activity, Aequorin assay with hCCR9 (human) was found to be 67.9 nM.
In the case of “recombinant native MCP-2 (from UniProt P80075 24-99) (ligand)”, the EC50, Aequorin assay (partial agonist) with hCCR2b (human) was determined as 23.5 nM.
“biotinSDF-1α (CXCL12), SDF-1α derivatised at the ε-amino side chain functionality of Lys(64) with Biotin (from UniProt P48061 22-67) (ligand)”: in the test with hCXCR4 (human), the EC50, agonist activity, Aequorin assay stood at 17.3 nM.
Take “recombinant native TARC (from UniProt Q92583 24-94) (ligand)”: in the test with CCR4 (human), the EC50, agonist activity, Aequorin assay stood at 2.6 nM.
In the case of “recombinant native MDC (from UniProt O00626 25-93) (ligand)”, in the test with CCR4 (human), the EC50, agonist activity, Aequorin assay worked out at 3.6 nM.
Substance “recombinant native ITAC (from UniProt O14625 22-94) (ligand)” had an EC50, agonist activity, Aequorin assay with hCXCR3 (human) of 0.7 nM.
“recombinant native MIP-3α (from UniProt P78556 27-96) (ligand)” came in with an EC50, agonist activity, Aequorin assay in the test with CCR6 (human) of 1 nM.
With “recombinant native MIP-3β (from UniProt Q99731 22-98) (ligand)”, the EC50, agonist activity, Aequorin assay in test [1] was found to be 1.6 nM.
“recombinant native IP-10 (from UniProt P02778 22-98) (ligand)” showed an EC50, agonist activity, Aequorin assay with hCXCR3 (human) of 4.4 nM.
In the test with hCCR9 (human), “biotinTECK(Met to Nleu substitution) (CCL25), derivatised at the ε-amino side chain functionality of Lys72 with PEG-Biotin (from UniProt O15444 25-97) (ligand)” showed an EC50, agonist activity, Aequorin assay of 63.6 nM.

Source of the values: patent EP2717941B1.
